Data from PMC6597557, “A split fluorescent reporter with rapid and reversible complementation” (Nature Communications, 2019).
One block for each binder: values may come before it.

Legend:
Details in all cases: both partners purified
[1] = target: T1, NFAST (fragment 1–114 of FAST); assay: other fluorescence titration; synthetic CFASTn peptides (n = 8–11) and recombinant purified NFAST in the presence of fluorogen (10 µM HMBR; also HBR-3,5DOM); Spark 10M plate reader; one-site-specific binding fit; apparent
T1 construct: N-terminal fragment (residues 1-114) of the engineered fluorogenic reporter FAST, split between Ser 114 and Gly 115; numbers count on: FAST; Cloned in pET28a with NheI and XhoI; Surmise: the His tag is the N-terminal one of the vector; no cleavage is told; also called recombinantly purified NFAST; source: E. coli Rosetta (DE3) pLysS, purified (Ni-NTA, PD-10 desalting)
T1 chain: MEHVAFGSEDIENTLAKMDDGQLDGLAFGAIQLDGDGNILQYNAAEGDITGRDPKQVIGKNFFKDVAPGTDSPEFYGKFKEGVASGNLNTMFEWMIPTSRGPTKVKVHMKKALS

CFAST9 [2] = target: T2, CFAST9; assay: other fluorescence titration; NFAST titrated onto 100 nM CFASTn in the presence of 10 µM HMBR; pH 7.4 phosphate buffered saline, 25 °C; excitation 480 nm, emission 540 nm; plate reader; one-site-specific binding fit; apparent
T2 construct: CFAST11 without its last two C-terminal residues; source: synthetic peptide, bought: Clinisciences, 98% purity
T2 peptide: Ac-GDSYWVFVK-NH2

CFAST8 = target: T3, CFAST8; assay: as above
T3 construct: CFAST11 without its last three C-terminal residues; source: synthetic peptide, bought: Clinisciences, 98% purity
T3 peptide: Ac-GDSYWVFV-NH2

CFAST10 [3] = target: T4, CFAST10; assay: as above
T4 construct: CFAST11 without its last C-terminal residue; source: synthetic peptide, bought: Clinisciences, 98% purity
T4 peptide: Ac-GDSYWVFVKR-NH2

[4] = target: T5, CFAST11 (fragment 115-125 of FAST); assay: as above
T5 construct: C-terminal fragment 115-125 of the engineered protein FAST; source: synthetic peptide, bought: Clinisciences, 98% purity
T5 peptide: Ac-GDSYWVFVKRV-NH2

CFAST9 [5] = target: T2, CFAST9; assay: other fluorescence titration; NFAST titrated onto 100 nM CFASTn in the presence of 10 µM HBR-3,5DOM; pH 7.4 phosphate buffered saline, 25 °C; excitation 520 nm, emission 600 nm; plate reader; one-site-specific binding fit; apparent
CFAST10 [6] = target: T4, CFAST10; assay: as above
[7] = target: T5, CFAST11 (fragment 115-125 of FAST); assay: as above

binding result [1]: binds
B1: CFAST11 (fragment 115–125 of FAST), synthetic peptide (peptide)
peptide: Ac-GDSYWVFVKRV-NH2
notes: C-terminal fragment (residues 115-125) of the engineered reporter FAST; numbers count on: FAST; source: synthetic peptide, bought: Clinisciences (98% purity)

Kd (CFAST9 [2]): 5.7 ± 0.6 µM
Kd (CFAST8): 21 ± 4 µM
Kd (CFAST10 [3]): 0.95 ± 0.08 µM
Kd [4]: 0.21 ± 0.05 µM
Kd (CFAST9 [5]): 25 ± 1 µM
Kd (CFAST10 [6]): 6.2 ± 0.5 µM
Kd [7]: 1.4 ± 0.2 µM
B2: NFAST (fragment 1-114 of FAST, Fluorescence-Activating and absorption-Shifting Tag) (domain or fragment)
chain: T1 chain
notes: Cloned into pET28a by NheI and XhoI; also called Histag-NFAST; pAG209; source: E. coli Rosetta (DE3) pLysS, purified (Ni-NTA, PD-10 desalting into PBS)

binding result [1]: binds
B3: CFAST10, synthetic peptide (peptide)
peptide: Ac-GDSYWVFVKR-NH2
notes: CFAST11 without its last C-terminal residue; numbers count on: FAST; source: synthetic peptide, bought: Clinisciences (98% purity)
